These results are taken from patent US12012446B2, “Epstein-Barr virus antibodies and uses thereof” (priority 2017, dated 2024).

One test concerns EBV. Particulars: SCID mice with PBMC from EBV-naïve donors; cited from earlier work.
The test system of the next test is goat anti-human IgG. The experiment in a line: ELISA for reactivity to anti-human IgG (HAMA testing). Particulars: 10 μg/ml antibody on gp350-coated plates. The test is classed as binding. From the text:
ClustalW alignment of heavy chain (i) and light chain (ii) variable region amino acid sequences. Murine 72A1 heavy chain and light chain AA sequences are represented by SEQ ID NOs: 178 and 179, respectively, and humanized 72A1 heavy chain and light chain AA sequences are represented by SEQ ID NOs: 180 and 181, respectively. Regions of identical sequence are represented by *. Regions of similarity are represented by :. […] FIG. 4C: ELISA determining the reactivity of humanized 72A1 to murine IgG. Soluble EBV gp350 protein was used as the target antigen at 0.5 μg/ml. […] Bound antibodies were detected using HRP-conjugated anti-mouse IgG or anti-human IgG (1:2,000). […] Unstained cells and cells stained with secondary goat anti-mouse or anti-human conjugated to AF488 alone were used as negative controls.
ELISA was performed to determine the reactivity of chimeric and humanized antibodies to murine IgG. Soluble EBV gp350 or gH/gL protein was used as the target antigen at 0.5 μg/ml. […] Bound antibodies were detected using HRP-conjugated anti-mouse IgG or anti-human IgG (1:2,000). […] To determine whether chimeric and humanized anti-gp350 retained the ability to recognize linear epitopes on gp350, lysate from CHO WT cells and CHO cell stably expressing gp350 were analyzed by western blot analysis.
Background: An ELISA detects its analyte on a solid surface through an enzyme-linked reagent.

B1: m72A1: EBV anti-gp350 neutralizing mouse antibody purified from HB168 hybridoma (ATCC); SEQ ID NO: 100 / 101 (antibody, V domains shown)
VH: PELVKPGTSMKISCKASGSSFTDYTMNWMKQSHGKNLEWIGLINPYNGGTRYNQKFKGKATLTLDKSSSTAYMEVLSLTSEDSAVYYCAGGLRRVNWFAYWGQGTLVSVSAAKTTPPSVYPLAPGSAAQTNSMVTLG
VL: QAVLTQESALTTSPGETVTLTCRSSTGAVTTSNYANWVQEKPDHLFTGLIGGTNNRVPGVPARFSGSLIGDKAALTITGAQTEDEAIYFCVLWHSNHWVFGGGTKLTVL
modifications: heavy chain mAb 72A1; light chain mAb 72A1
As for B1, the “protection against EBV and development of EBV+ tumors or PTLD-like lesions” value with EBV is “completely protected”.

B2: h72A1: humanized 72A1 IgG1; heavy and light chain SEQ ID NOs: 180 and 181 (antibody, V domains shown)
VH: EVQLVESGGGLVQPGGSLRLSCAASGSSFTDYTMNWMRQSPGKGLEWIGLINPYNGGTRYADSVKGRATLSLDKSKNTAYLQMNSLRAEDTAIYYCAGGLRRVNWFAYWGQGTLVTVSS
VL: DAQLTQSPILLSASVGDRVTITCRSSTGAVTTSNYANWVQERTNGSFRGLIGGTNNRVPGVPSRFSGSLSGDDATLTISSLQPEDEADYFCVLWHSNHWVFGAGTKVEIKR
As to B2, in the test with goat anti-human IgG, the “reactivity to goat anti-human IgG over the background” value is 2100 fold.
